# Experimental data taken from the nanobody polyreactivity screen of Harvey et al. (2022).
# Assay: yeast display, Sf9 membrane polyspecificity reagent, FACS + sequencing; frameworks hold sequencing errors
# How it was run: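 Polyreactivity labels are assigned by the sorting gate from which each nanobody was recovered. The gates were low and high (top ~1%), set on anti-HA fluorescence for expression and streptavidin fluorescence for reagent binding. Before sorting, galactose-induced (36–48 hours) yeast display cells were stained for 1 hour at 4 °C with 10% biotinylated, detergent-solubilized Sf9 membrane reagent.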
row,Sequence,polyreactivity (PSR sort gate)
1,QVQLVESGGGLLQAGGSLRLSCAASGRIFAQYAMGWYRQAPGKEREFDAGISTTGGSTYYADSVKGRFTISRDNAKNTVYLQMNSLKPEETAVYYCAADRRDRSPFYYWGQGTQVTVSS,high polyreactivity
2,QVQLVESGGGLVQAGGSLRLSCAASGFTFYRYTMGCYRQAPGKERELVAAISSGDSTYYADSVKGRFTISRDNAKNTVYLQMNSLKPEDTAVYYCAARQYSRGAIVYYWGQGTQVTVSS,high polyreactivity
3,QDQLVESGGGLVQARGSLRLSCAASGSIFVHNAMGWYRQAPGKEREFVAAITWSGGSTYYADSVKGRFTISRDYAKNTVYLQMNSLKPEDTAVSYCAAEDVAAQWAYESPTSYWYYYWGQGTQVTVSS,low polyreactivity
4,QVQLVESGGGLVQAGGSLRLSCAASGSTFTYYTMAWYRQAPGKERELVAAISWSGGRTYYADSVKGRFTISRDNAKNTVYLQMNSLKPEDTAVYYCAAGPAPGHDSWGQGTQVTVSS,high polyreactivity
5,QVNLVDSGGRLVQAGGSLRLSCAASGRIFYRYAMGWYIQAPGKERELVAAISRRGGSTYYADSVKGRFTISRDNAKNTVYLQMNSLNPEDTAVYYCNVYRSAFSYDSWGQCTQVTVSS,high polyreactivity
6,QVQLVESGGGLVQAGGSLRLSCAASGIIFIYYAMGWYRQAPGKERELVAAISQSGVNTYYADSVKGRFTISRDNAKNTVYLQMNSLKPEDTAVYYCAADRYGHFGYWGQGTQVTVSS,high polyreactivity
7,QVQLVESGGGLDQAGGSLRLSCAASGFIFGPNAMGWYRQAPGKERELVAAISWIGSSTYYADSVKGRFTISRDNAKNTVYIKMNSLTPEDTPVYYCAADSSERRLLDFDYWGQGTQVTVSS,low polyreactivity
8,QVQLVESGGGLVQAGGSLRLSCAASGRTYQANTMGWYRQAPVKEREFVAAISTSVGSTYYADSVKGRFTISRDNAKNTVYLQMKSLKPEDTALFYCAKASQSWGRDDYYYWGQGTQVTVSS,low polyreactivity
9,QVQLVESGGGLVQAGGSLRLSCAASGFTFIRYAMGCYRQAPGKERELVAAIRGTGTSTYYADSVKGRFTISRDNAKNTVYLQMNSLKPEDTAVYYCNKVAGRSPYTRYDYWGQGTQVTVSS,low polyreactivity
10,QVQLVESGGGLVQAGGSLRLSCAASGSIFEGNGMGWYRPAPGKERELVAAITFRSGSTYYADSVKGRFTISRDNAKNTVYLQMNSLKPEDTAVYYCAADEYYQVSAYDYWGQGTQVTVSS,low polyreactivity
11,QVQLVESGGGLVQAGGSLRLSCAASGGIFPYYAMGWYSQAPGKEMELVAGISQNDGRTYYADSVKGRFTISRDNAKNTVYLQMNSLKPEDTAVYYCATVYWYPRYGYWGQGTQVTVSS,low polyreactivity
12,QDQLVESGGGLVQAGGSLRLSCAASGGIFPAYAMGWYSQAPGKERELVASISANGGRTYYADSVKGRFTISRDNAKNTVYLQMNSLKPEDTAVYYCNKRWLHWSGYDYWGQGTQVTVSS,high polyreactivity
13,QVQLVESGGGLVQAGGSLRLSCAASGSTFLRNAMRWYRQAPGKERELVAAISRSGGSTYYADSVKGRFTSSRDNAKNTVYLQMNSLKPEDTAVYYCAAVVKYRYSAYGGDYCGQGTQVTVSS,high polyreactivity
14,QVQLVESGGGLVQAGGSLRLSCAASGSIFVRNAMGWYRQAPGKERELVAAITYSGSRTYYADSVKGRFTISRDNAKNTVYLQMNSLKPEDTEVYYCAKVRVLVDKWSTFYEYYYWGQGTQVTVSS,low polyreactivity
15,QVQLVESGGGLVQAGGSLRLICAASGSIFDSYTMGWYRQAPGKERELVAAISKNGGSTYYADSVKGRFTISRDNAKNTVYFQMNSLKPEDTAFYYCARSRSGYRYDYWGQGTQVTVSS,high polyreactivity
16,QVQRVESGGGLVQAGGSLRLSCAASGSTLVYNDMGWYRPAPGKEREFVAAIRSNDGSTYYADSVKGRFTISRDNAKNTVYLQMNSLKPEDTAVYYCNKDVWDGYDWPEFDYSGQGTQVTVSS,low polyreactivity
17,QVQLVESGGGLVQAGGSLRLSCAASGRIFIWYGMGWYRQAPGKERELVADISSTGSTNYADSVKGRFTISRDNAKNTVYLQMNSLKPEDTAVYYCAADPETPYYTTYDYDYWGQGTQVTVSS,low polyreactivity
18,QVQLVESGGGLVQAGGSLRLSCAASGSIFEEYALGSSRQAPGKERELVAAISRSGGSTYYADSVKGRFTISRDNAKNSVYLQMNSLKPEDTAVYYCAAEWVYGYRFGYWGQGTQVTVSS,low polyreactivity
19,QVQLVESGGGLVQAGGSLRLSCAASGITFVFYAMGWYRQAPGKERELVAAISTGGSTNYADTVKGRFTISRDNAKNTVYFQMNSLKPEDTAVYYCAAQYFISISKYDYWGQGTQVTVSS,low polyreactivity
20,QVQIVESGGGLVQAGGSLRLSCAASGRIFIRYSMGWYRHAPGIERELVAAISSGGRTYYADSVKGRFTISRDNATNTVYLQMNSLNPEDTAVYYCARASSIARYDNWGQGTQVTVSS,high polyreactivity
21,QVQLVESGGGLLQAGGSLRLSCAASGGMFKYNAMGWYRQAPRKARELVPAINYSGGRTYYADSVKGRFTISRDNAKNTVYLQMTSLKPEDTAVDYCNALTRGHTGQPYTYDYWGQGTQVTVSS,high polyreactivity
22,QVQLVESGGGLVQAGGSLRLSCAASGSTFYKYAMGWYRQAPGKERELVASITWSGTSTYYADSVKGRFTISRDKAKNTVYLQMNSLKPEDTAVYYCNAGLESYYWGYTWEFDYWGQGTQVTVSS,low polyreactivity

row,Sequence,polyreactivity (PSR sort gate)
1,QVQLVESGGGLVQAGGSLRLSCAASGFIFGVYAMGWYRQAPGKERELVAAISRSGGSTYYADSVKGRFTISRDNAKNTVYLQMNSLKPEDTAVYYCATQVSWYGKGYYYWGQGTQVTVSS,high polyreactivity
2,QVQLVESGGGLVQAGGSLRLSCAASGNTFRRYAMGWYRQAPGKEREFVAAISSSGGRTYYADSVKGRFTISRDNAKNTVYLQMNSLKPEDTAVYYCNAVSYWVRGEMDYWGQGTQVTVSS,high polyreactivity
3,QVQLVESGGGLVQAGGSLRLSCAASGLIFRYYAMGWYRQAPGKERELVASISWHGGSTNYADSVKGRFTISRDNAKNTVYLQMNSLKPEDTAVYYCAADAWVATTILHDYWGQGTQVTVSS,high polyreactivity
4,QVQLVESGGGLVQAGGSLRLSCAASGSIFSSYAMGWYRQAPGKERELVAGISKSGGSTYYADSVKGRFTISRDNAKNTVYLQMNSQKPEDTAVYYCAGPSYWGGGRYRYGYWGQGTQVTVSS,high polyreactivity
5,QVQLVESGGGLVQAGGSLRLSCAASGSTFFYYAMGWSRQEPGKERELVASISSRGGSTYYADSVKGRFTISRDNAKNTVYLQMYSLKPEDTAVYYCAADLWAYGPLWRWSRADYDYWGQGTQVTVSS,low polyreactivity
6,QVQLVESGGGLVQAGGSLRLSCPASGSIFSLNAMGWSRQAPGKERELVAASGGGSTYYADSVKGRFTISRDNAKNTVYLQMNSLKPEDTAVYYCAARVLTDELDYWGQGTQVTVSS,low polyreactivity
7,QVQLVESGGGLVQAGGSLRLSCAASGIIFEGYAMGWYRQAPGKERELVATITSGGITYYADSVKGRFTISRDNAKNTVYLQMNSLKPEDTAVYYCAADNEDIGSEDSDYGYDYWGQGTQVTVSS,low polyreactivity
8,QVQLQESGGGLVLAGGSLRLSCSASGNISVYGSMGWYRQAPGKVREFVATIDPGTNTNYADSVKDRFTISRDNAKNTVYLQMNSLKPEDTAVYYCAVEAGSDWPYRYWGQGTQVTVSS,low polyreactivity
9,QVQLVESGGGLVQAGGSLRLSCAASGSTLRHNVMGWYRQAPGKERELVAAITFSGGSTTYADSVKGRFTISRDNAKNTVYLQMNSLKPEDTAVYYCNAVYAGAGSFHPGYGYWGQGTQVTVSS,low polyreactivity
10,QVQLVESGGGLVQAGGSLRLSCAASGFTFGSYAMGWYRQAPGKERELVAAITCSGGSTYYADSVKGRFTISRDNAKNTVYLQMNSLKPEDTAVYYCNADVAGGYGWKSYHGYDYWGQGTQVTVSS,high polyreactivity
11,QVQLVESGGGLVQAGGSLRFSCAASGSIFYRNAMGWDRQAPGKEREMVAAISASSGRTYYADSVKGRFTISRDNAKNTVYLQMNSLKPEDTAVYYCAVRPYRSAGGSVTRGAYYYWGQGTQVTVSS,high polyreactivity
12,PLQLVESGGGLGQAGGSLRLSCAASGSTFGHNAMGWYRPAPGKERELVAAISISGGRTYYADSVKGRFTISRDNAKNTVYLQMISRKPEDTAVYYCAAEVWYVGDNYDYWGQGTQVTLSS,high polyreactivity
13,QVQLVESGGGLVQAGCSLRLSCAASGNTYYSYTMGWYRQAPGKERELVAAITGSGSTYYADSVKGRFTISRDNAKNTVYLQMNSLKPEDTAVYYCASRYVERHTDYYYWGQGTQVTVSS,low polyreactivity
14,QVQLVESGGGLVQAGGSLRLSCAASGFTFWWYAMGWYRQAPGKERELVAAISSGGSTNYADSVKGRFTISRDNAKNTVYLQMNSLKPEDTAVYYCNKDYYGSPSSYYGYDYWGQGTQVTESS,high polyreactivity
15,QVQLVESGGGLVQAGGSLRLSCAASGRIFRINGMGWYRQAPGKEREFVAAITSGGGTYYADSVKGRFTISRDNAKNTVYLQMNSLKPEDTAVYYCAVRRRYGDDYWGQGTQVTVSS,high polyreactivity
16,QVQLVESGGGLVQAGGSLRLTCAASGSILYTYAMGWYRQAPGKERELVAAISRGGGSTYYADSVKGRFTISRDNAKNTVYLQMNSLKPEDTAVYYCAARKLTRGTGRDDEYWGQGTQVTVSS,high polyreactivity
17,QVQLVESGGGLVQAGGSLRLSCAASGFIFGSYALGWDRQAPGKEWELVAAINYDGGSTYYADSVKGRFTISRDHAKNTVYLQMNSLKPEDTAVYYCAADLYYTHMDYWGQGTQVTVSS,low polyreactivity
18,QVQLVESGGGLVQAGGSLRISCAASGSIFGLYAMGWYRQAPGKERELVAAINQSGGSTSYADSVKGRFTISRDNAKNTVYLQMNSLKPEDTAVYYCNRVRLNSEGFDYWGQGTQVTVSS,low polyreactivity
19,QVQIVDSGGGLVQAGGSLRLSCAASGRTFNYYAKGWYRQAPGKERQLVAAISKSGGSTYYADSVKGRFTISRDNEKNTVYLQMNSLKPEETAVYYCAALTTHAPHSYNYWGQGTQVTVSS,low polyreactivity
20,HVQLVESGGGLVQAGGSLRLSCAASGSTCRYYARGWYRQAPGKERELGAAISGRGARTYYADSVKGRFTISRDNAKNTVYLQMNSLKPEDTAVYYCAAVGYRYRHSRYYWGQGTQVTVSS,high polyreactivity
21,QVHLQESGGGLVQAGGSLRMSCAASGTIFTEANMGWYRQAPGKERELVATIGLGSTTNYADSVKGRFTISRDNAKNTVYLQMNSLKPEETAVYYCAVVTVDPVGFVYWGQGSQVTVSS,low polyreactivity
